Measurements reported in patent publication US20180230219A1 (HELIX BIOPHARMA, published 2018).

Target: T1, human VEGFR-2/Fc (R&D Systems) (human, UniProt P35968 20-764)
T1 construct: also called recombinant VEGFR2/Fc; VEGFR/Fc; not shown: Fc part of the bought fusion protein (captured by anti-human IgG-Fc in the ELISA)
Assay: SPR, Biacore 3000, human VEGFR-2/Fc immobilized

T1 sequence (P35968 20-764): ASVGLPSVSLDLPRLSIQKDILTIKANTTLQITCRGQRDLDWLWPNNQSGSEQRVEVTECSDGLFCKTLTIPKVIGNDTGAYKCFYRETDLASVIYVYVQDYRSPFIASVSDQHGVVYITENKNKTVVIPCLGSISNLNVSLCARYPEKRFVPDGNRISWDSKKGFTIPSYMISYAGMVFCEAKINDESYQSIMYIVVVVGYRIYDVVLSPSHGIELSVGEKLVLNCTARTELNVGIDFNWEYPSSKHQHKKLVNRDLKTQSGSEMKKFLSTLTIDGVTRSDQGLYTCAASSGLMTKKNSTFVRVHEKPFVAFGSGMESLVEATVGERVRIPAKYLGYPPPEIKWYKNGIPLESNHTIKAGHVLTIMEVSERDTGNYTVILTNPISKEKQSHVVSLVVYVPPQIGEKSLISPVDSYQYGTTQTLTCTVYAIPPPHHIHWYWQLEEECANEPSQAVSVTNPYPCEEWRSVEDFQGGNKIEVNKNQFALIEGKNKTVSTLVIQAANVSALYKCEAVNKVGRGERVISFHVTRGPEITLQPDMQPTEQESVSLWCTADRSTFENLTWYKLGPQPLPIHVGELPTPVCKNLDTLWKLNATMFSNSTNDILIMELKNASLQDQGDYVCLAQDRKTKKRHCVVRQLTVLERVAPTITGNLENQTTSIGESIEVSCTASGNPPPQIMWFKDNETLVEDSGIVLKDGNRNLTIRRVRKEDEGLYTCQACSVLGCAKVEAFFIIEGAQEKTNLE

Kd: 80 nM
koff: 0.015 s⁻¹
B1: AB4 with linker 2; VR2-38 (SEQ ID NO:27) (VHH)
VHH: QVKLEESGGGLVQAGGSLRLSCAASGGTASSYAMGWFRQAPGKEREFVAAISRSGGNTDYVDSAKGRFTISRDDAKNTVSLQMNSLRLEDTAVYYCAARYAGTWPNDAGTVYWLPPNYNYWGQGTQVTVSS
